Changes are numbered by the printed parent chain.

Sequences and labels used below:
B1: L4H4 phage-displayed Fab (Fab, V domains shown)
VH: QVQLQQWGAGLLKPSETLSLTCAVSGGSFSGYYWSWIRQPPGKGLEWIGEINHSGSTNYNRSLKSRVTISVDTSKNQFSLKLSSVTAADTAVYYCARLSYGSGVDYWGQGTLVTVSS
VL: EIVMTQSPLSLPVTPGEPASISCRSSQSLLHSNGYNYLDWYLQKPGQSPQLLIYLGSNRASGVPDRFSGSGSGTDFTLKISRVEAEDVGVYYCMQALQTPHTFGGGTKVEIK
B2: L13H13 phage-displayed Fab (Fab, V domains shown)
VH: QVQLQESGPGLVKPSETLSLTCTVSGGSISSSNWWSWVRQPPGKGLEWIGEIYHSGSTNYNPSLKSRVTISVDKSKNQFSLKLSSVTAADTAVYYCAREGNRTVTSAFDIWGQGTMVTVSS
VL: not shown
B3: L50H50 phage-displayed Fab (Fab, V domains shown)
VH: QVQLQESGPGLVKPSETLSLTCTVSGGSIGNYDWSWIRQPPGKGLEWIGTIYSSGSTYYSPSLKSRLTISVDKSKNRFSLKLSSVTAADTAVYYCARARGYSSPFDPWGQGTLVTVSS
VL: ETTLTQSPGTLSLSPGERATLSCRASQTISSSHLAWYQQKPGQSPRLLIYGAGYRATGIPDRFSGSGSGTDFTLTISRLEPEDFAVYYCQHYGSSLRTFGQGTKVEIK
B4: L51H51 phage-displayed Fab (Fab, V domains shown)
VH: QVQLVQSGAEVKKPGSSVKVSCKASGGTFSSYAISWVRQAPGQGLEWMGIINPSGGSTSYAQKFQGRVTITRDTSASTAYMELSSLRSEDTAVYYCARDRWRYDAFDIWGQGTMVTVSS
VL: NFMLTQPHSVSESPGKTVTISCTGSGGNIASNYVQWYQQRPGRAPTTVIYEDNRRPSGVPDRFSGSIDSSSNSASLTISGLKTEDEADYYCQSYDPYNRVFGGGTKLTVL
B5: L52H52 phage-displayed Fab (Fab, V domains shown)
VH: EVQLVESGPGLVKPSGTLSLTCAVSGGSISSSNWWSWVRQPPGKGLEWIGEIYHSGSTNYNPSLKSRVTISVDKSKNQFSLKLSSVTAADTAVYYCAREKSGMDVWGQGTTVTVSS
VL: EIVMTQSPLSLPVTPGEPASISCRSSQSLLHTNGYDYLDWYLQKPGQSPQLLIYLGSTRASGVPDRFSGSGSGTDFTLKISRVEAEDVGVYYCMQAFQTPLTFGGGTKMEIK
B6: L26H26 phage-displayed Fab (Fab, V domains shown)
VH: QVQLQESGPGLVKPSGTLSLTCAVSGGSISSSNWWSWVRQPPGKGLEWIGEIYHSGSTNYNPSLKSRVTISVDKSKNQFSLKLSSVTAADTAVYYCARYSYGTVGIDYWGQGTLVTVSS
VL: B5 VL with E1D, I2V, T32S, D36T, T58N, A85P, F97L, Q98E, T99M, M109V
B7: L16H16 phage-displayed Fab (Fab, V domains shown)
VH: B6 VH with Y99W, S100T, Y101G, G102R, V104D, G105A, I106F, Y108I, L114M
VL: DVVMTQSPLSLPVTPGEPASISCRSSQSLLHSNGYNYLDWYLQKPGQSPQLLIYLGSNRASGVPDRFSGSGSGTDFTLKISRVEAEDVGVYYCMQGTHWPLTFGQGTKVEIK
B8: L8H8 phage-displayed Fab (Fab, V domains shown)
VH: QVQLQQWGPGLVKPSGTLSLTCAVSGGSISSSNWWSWVRQPPGKGLEWIGEIYHSGSTNYNPSLESRVTISVDKSKNQFSLKLSSVTAADTAVYYCARDRYYGMDVWGQGTTVTVSS
VL: not shown
B9: L12H12 phage-displayed Fab (Fab, V domains shown)
VH: EVQLVESGGGLVQPGGSLRLSCAASGFTFSSYAMSWVRQAPGKGLEWVSAISGSGGSTYYADSVKGRFTISRDNSKNTLYLQMNSLSADDTAVYFCASGGWYGDYFDYWGQGTLVTVSS
VL: NFMLTQPHSVSESPGKTVTISCTRSSGSIASNYVQWYQQRPGSSPTTVIYEDNQRPSGVPDRFSGSIDSSSNSASLTISGLKTEDEADYYCQSYDSSNQRVFGGGTKLTVL
B10: L11H11 phage-displayed Fab (Fab, V domains shown)
VH: QLQLQESGPGLVKPSGTLSLTCAVSGGSISSSNWWSWVRQPPGKGLEWIGEIYHSGSTNYNPSLKSRVTISVDKSKNQSSLKLSSVTAADTAVYYCARANRDDAFDIWGQGTMVTVSS
VL: EIVLTQSPLSLPVTPGEPASISCRSSQSLLHSNGYNYLNWYLQKPGQSPQLLIYLGSNRASGVPDRFSASGSGTDFTLKISRVEAEDVGVYYCMQALQTPITFGQGTRLEIK
B11: L5H5 phage-displayed Fab (Fab, V domains shown)
VH: QLQLQESGPGLVKPSQTLSLTCTVSGGSISSSNWWSWVRQPPGKGLEWIGEIYHSGSTNYNPSLKSRVTISVDKSKNQFSLKLSSVTAADTAVYYCARYSSSRNDAFDIWGQGTMVTVSS
VL: not shown
B12: L9H9 phage-displayed Fab (Fab, V domains shown)
VH: EVQLVESGPGLVKPSGTLSLTCAVSGGSISSSNWWSWVRQPPGKGLEWIGYIYYSGSTYYNPSLKSRVTMSVDTSKNQFSLKLSSVTAADTAVYYCARWSYLDAFDIWGQGTMVTVSS
VL: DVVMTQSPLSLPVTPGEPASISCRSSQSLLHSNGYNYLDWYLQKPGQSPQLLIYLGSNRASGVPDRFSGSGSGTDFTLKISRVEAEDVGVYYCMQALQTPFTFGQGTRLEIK

One assay addresses T1, hu IGF-1R(ECD)-C3-muIgG1Fc (human; mouse, Glycosylated. 60% of the preparation was cleaved between the alpha and beta chains (RKRR, mature positions 708-711), which stay disulfide-linked; 40% was unprocessed. Dimer through the …).
T1 construct: 60% of the product was processed into α and β chains, 40% unprocessed; also called IGF-1R(ECD)-C3-muFc; IGF-1R-C3-muFc
Briefly: phage Fab ELISA, plate coated with IGF-1R-C3-mFc at 5 µg/ml. As to the method:
(§1) In 96-well 2-ml deep-well blocks, 480 μl/well 2xYT-CG broth was inoculated with 20 μl of overnight cultures of the individual clones, then incubated at 37° C., 300 rpm for 3 hours. To each well, 50 μl of 1:3 diluted M13KO7 helper phage were added to infect the cells. The block was incubated at 37° C. without shaking for 30 minutes, and then shaken gently for another 30 minutes at 150 rpm. The block was centrifuged at 3600 rpm for 20 minutes to pellet the infected cells. The cell pellet in each well was suspended into 480 μl of 2xYT-CK (2xYT broth containing 100 μg/ml carbenicillin and 40 μg/ml kanamycin), and incubated at 30° C. overnight for about 20 hours. The cell debris was separated by centrifugation at 3600 rpm for 20 minutes. The rescued phage supernatant was used in the phage ELISA to check for IGF-1R-specific, INSR-cross reactive, or mouse Fc binding of individual clones.
(§2) The coated plates were washed 3× with 300 μl/well of PBS. The washed plates were blocked with 300 μl/well 2% MPBS at room temperature for one hour. Meanwhile, rescued phages of individual clones were pre-blocked by mixing 170 μl of rescued phage with 170 μl of 4% MPBS. The blocked plates were washed 5× with 300 μl/well TBST (TBS: 10 mM Tris-HCl, pH 7.5, 1 mM EDTA, 150 mM NaCl; Tween-20. 0.1%). 100 μl/well of pre-blocked phage dilutions were distributed to each set of coated plate, which were incubated at room temperature on a rocker for 90 minutes. The plates were washed 5× with 300 μl/well TBST. 100 μl/well of anti-M13-HRP in 2% MPBS (1:3000 dilution, catalog number 27-9421-01, Amersham Pharmacia Biotech) were distributed, and plates were incubated at room temperature on rocker for one hour. The plates were washed 5× with 300 μl/well TBST. 100 μl/well of the substrate 1-Step™ ABTS (Pierce Biotechnology, Rockford, Ill., catalog number 37615) were added. Plates were incubated for one hour. OD₄₀₅ was measured for signal detection.
Take B1: the binding result is recorded as “binds”.

Consider B2, for which the binding result is reported as “binds”.

For the molecule B3, the binding result is on record as “binds”.

With B4, the binding result is “binds”.

On to B5, for which the binding result is “binds”.

Turning to B6, the binding result is reported as “binds”.

Take B7: the binding result is listed as “binds”.

Regarding B8, the binding result is “binds”.

As for B9, the binding result is reported as “binds”.

Turning to B10, the binding result is reported as “binds”.

For B11, the binding result is given as “binds”.

For the molecule B12, the binding result was “binds”.

The target in another assay is T2, hu INSR(ECD)-muIgG1Fc (human; mouse, Glycosylated. 87% of the preparation was cleaved between the alpha and beta chains (RKRR site), which stay disulfide-linked. Dimer through the receptor and the murine Fc.).
T2 construct: 87% processed into α and β chains; also called INSR(ECD)-muFc; INSR-mFc
Nature of the assay: phage Fab ELISA, plate coated with INSR-mFc at 5 µg/ml. Here is the method:
as §1, §2
For orientation: In an ELISA, binding on a coated surface is turned into a signal by an enzyme label.
As for B1, the binding result is listed as “no binding”.

For B2, the binding result is reported as “no binding”.

On to B3, for which the binding result is “no binding”.

Consider B4, for which the binding result was “no binding”.

For B5, the binding result is given as “no binding”.

As to B6, the binding result is listed as “no binding”.

On to B7, for which the binding result was “no binding”.

Take B8: the binding result is given as “no binding”.

In the case of B9, the binding result is “no binding”.

On to B10, for which the binding result is “no binding”.

With B11, the binding result is recorded as “no binding”.

For the molecule B12, the binding result is “no binding”.

The values are drawn from US20140037642A1 (Amgen, published 2014).
